# Assay results published in patent publication US10052364B2, “Osteocalcin as a treatment for cognitive disorders” (THE TRUSTEES OF COLUMBIA UNIVERSITY IN THE CITY OF NEW YORK, priority 2013, dated 2018).
# B1: uncarboxylated osteocalcin: Recombinant osteocalcin bacterially produced, cleaved from the GST subunit; completely undercarboxylated at all three sites (protein, listed as Homo sapiens)
# chain: MRALTLLALLALAALCIAGQAGAKPSGAESSKGAAFVSKQEGSEVVKRPRRYLYQWLGAPVPYPDPLEPRREVCELNPDCDELADHIGFQEAYRRFYGPV
# modifications: uncarboxylated
# notes: Recombinant osteocalcin bacterially produced, cleaved from the GST subunit; completely undercarboxylated at all three sites
# Experiments:
# [1] = system: mouse primary hindbrain neurons (MPHN); assay: Gene expression in cultured mouse primary hindbrain neurons; format: cell-based; details: osteocalcin 3 ng/ml, 2 or 4 hours, WT and Gprc6a-/-
# Method: For gene expression studies, RNA was isolated from primary neurons or tissue using TRIZOL® (Invitrogen). cDNA synthesis was performed following a standard protocol from Invitrogen and qPCR analyses were done using specific quantitative PCR primers from SABiosciences (www.sabiosciences.com/RT2PCR.php).
# For primary culture of hindbrain neurons, E14.5 embryos were obtained from matings of 129-Sv WT mice. Hindbrains were dissected out and collected in ice-cold filter sterilized HBSS buffered with 10 mM HEPES until dissection was complete, at which point they were finely chopped into 2 mm cubes, dissociated by trituration with a fire-polished Pasteur pipette and spun down at 4° C. Cells were then plated onto poly-D-lysine coated coverslips or dishes in Neurobasal medium supplemented with 2% B27, 0.25 mM Glutamax, 0.25 mM L-glutamine, penicillin G (50 U/ml), and streptomycin sulphate ([…]). Cultures were fed every 3-6 days with one half replacement medium without L-glutamine.
# To determine if osteocalcin acts directly on neurons to modulate neurotransmitter synthesis, several types of assays were performed. First, brainstem and midbrain explants from WT and Gprc6a^−/− mice were generated. […] Third, to further confirm that osteocalcin signals in neurons of the hindbrain, calcium flux in MPHN treated with undercarboxylated or carboxylated osteocalcin (FIG. 3F) was measured. […]
# [2] = Blood brain barrier crossing: subcutaneous osteocalcin infusion, content measured in blood, bone and parts of the brain by ELISA; format: in vivo, mouse; details: subcutaneous pump, uncarboxylated osteocalcin 50 ng/hour, seven days, three-month-old Osteocalcin-/- mice
# Method: FIG. 3. Osteocalcin binds to neurons in the brain. (A) Measurement of the total osteocalcin in 3 month-old Osteocalcin^−/− mice infused subcutaneously for 7 days with either uncarboxylated osteocalcin (300 ng/hour, right panel) or PBS (left panel). Osteocalcin levels were measured in bone, serum, and different parts of the brain (cortex, midbrain, hypothalamus, brainstem, and cerebellum). (B) Subcutaneous infusion of leptin ([…], right panel) or PBS (left panel) for 7 days in ob/ob mice. Leptin levels were measured in serum, cortex, midbrain, hypothalamus, brainstem, and cerebellum. […]
# Osteocalcin^−/−, Gprc6a^−/−, Osteocalcin-mCherry, and Osteocalcin floxed mice have been previously described (Ducy et al., 1996, Nature 382:448-452; Oury et al., 2011, Cell 144:796-809). Mouse genotypes were determined by PCR. […] Leptin and osteocalcin content in sera and tissues were determined by ELISA.
# To understand how this behavioral phenotype develops, whether osteocalcin crosses the blood brain barrier (BBB) was tested by installing pumps that subcutaneously delivered vehicle or uncarboxylated osteocalcin (50 ng/hour) in three-month-old Osteocalcin^−/− mice. […] Seven days later, osteocalcin and leptin content were measured in blood, bone, and in various parts of the brain in Osteocalcin−/− and ob/ob mice, respectively. […]
molecule,measurement,setting,value
B1,GA' expression decrease in primary brainstem neuronal culture,[1],65%
same,Tph2 expression in primary brainstem neuronal culture,[1],increased more than three-fold
same,"osteocalcin concentration in brainstem, thalamus and hypothalamus relative to that observed in serum",[2],~50%
